Results: doi:10.1101/2025.08.13.669967, “Cryo-EM protein structure without purification” (bioRxiv, 2025)

Biological target: the molecule itself
Test: native gel or EMSA; Native PAGE of the 25 µl PURE cell-free expression reaction with FluoroTect GreenLys fluorescent detection, compared to a no plasmid DNA control

B1: Arabidopsis thaliana Pyridoxal 5'-phosphate synthase-like subunit PDX1.2 (natural protein, UniProt Q9ZNR6 1-314, looked up)
chain: MADQAMTDQDQGAVTLYSGTAITDAKKNHPFSVKVGLAQVLRGGAIVEVSSVNQAKLAESAGACSVIVSDPVRSRGGVRRMPDPVLIKEVKRAVSVPVMARARVGHFVEAQILESLAVDYIDESEIISVADDDHFINKHNFRSPFICGCRDTGEALRRIREGAAMIRIQGDLTATGNIAETVKNVRSLMGEVRVLNNMDDDEVFTFAKKISAPYDLVAQTKQMGRVPVVQFASGGITTPADAALMMQLGCDGVFVGSEVFDGPDPFKKLRSIVQAVQHYNDPHVLAEMSSGLENAMESLNVRGDRIQDFGQGSV
modifications: translation mixture supplemented with FluoroTect GreenLys reagent (fluorescent detection)
notes: Pyridoxal 5'-phosphate synthase-like subunit PDX1.2 of Arabidopsis thaliana, Uniprot Q9ZNR6; synthetic gene (Genscript) in the pT7-DHFR Control plasmid in place of DHFR (NdeI/NotI); source: PURE (PureExpress In Vitro Protein Synthesis kit, New England Biolabs) cell-free expression, 25 µl reaction; in crude lysate or after small-scale clean-up (spin filter, benzonase, reverse His-purification); …
stoichiometry N: 12
